Data on two proteins can be found in article PMC11920956.

The target of data set [1] is Lys4 (position 4, --VERKEG---). Nature of the data set: potentiometry. The settings on record: 298 K, 0.1 M NaClO4.
For data set [2], the target named is Tyr16 (position 16, …-). Briefly: potentiometry. The settings on record: 298 K; 0.1 M NaClO4; none (4 mM HClO4, 0.5 mM peptide); free peptide, no metal.

VERKEG: the pKa – broadly, the pH at which an ionisable group is half protonated – in data set [1] (none (4 mM HClO4, 0.5 mM peptide), free peptide, no metal) was 9.92; in data set [1] (none (4 mM HClO4, 0.5 mM peptide, Mohr's salt as Fe(II) source), Fe(II) present, Fe(II):L = 1:1.1, step [FeLH-3]2- to [FeLH-4]3- of the 1:1 Fe(II):L2 complex) it was 9.87. Turning to IMRGEATPFVMELPVYHVPH [L1, peptide model of the Core CFeoB region of FeoB (residues 477-496) (Escherichia coli K12)], the pKa in data set [2] came out at 9.67.
